Data from patent US20220227830A1, “QD DOSING OF GIP RECEPTOR AGONIST PEPTIDE COMPOUNDS AND USES THEREOF” (Takeda Pharmaceutical Company Limited, priority 2020, published 2022).
Starred links: 1 amine or outer side, 2 acyl side, 3 side chain; linkers in the order of their positions; H or OH if unused. Non-standard residues stand in square brackets, D forms with d. Groups on a side chain read outwards from the residue. No end group written: not given here. *: point of attachment. C15 diacid = O=C(O)CCCCCCCCCCCCCC(=O)*; γGlu = O=C(O)[C@H](CCC(=O)[*:2])N[*:1]; NMeY = CN[C@@H](Cc1ccc(O)cc1)C(=O)O; AEEA = NCCOCCOCC(=O)O; Aib = CC(C)(N)C(=O)O

Assays:
human plasma proteins [1] = assay: plasma protein binding; spiked human plasma, ultracentrifugation, LC-MS/MS
human plasma proteins [2] = assay: plasma protein binding, ultracentrifugation of spiked plasma, LC-MS/MS
dog plasma proteins = assay: as above

B1: Compound 23 (peptide)
peptide: [NMeY][Aib]EGTFISDYSIAK([AEEA-γGlu-γGlu-γGlu-C15 diacid])DR[Aib]AQ[Aib]NFVNWLLAQK-NH2
modifications: N-terminus assumed
SMILES: CC[C@H](C)[C@H](NC(=O)[C@H](CO)NC(=O)[C@H](Cc1ccc(O)cc1)NC(=O)[C@H](CC(=O)O)NC(=O)[C@H](CO)NC(=O)[C@@H](NC(=O)[C@H](Cc1ccccc1)NC(=O)[C@@H](NC(=O)CNC(=O)[C@H](CCC(=O)O)NC(=O)C(C)(C)NC(=O)[C@H](Cc1ccc(O)cc1)NC)[C@@H](C)O)[C@@H](C)CC)C(=O)N[C@@H](C)C(=O)N[C@@H](CCCCNC(=O)COCCOCCNC(=O)CC[C@H](NC(=O)CC[C@H](NC(=O)CC[C@H](NC(=O)CCCCCCCCCCCCCC(=O)O)C(=O)O)C(=O)O)C(=O)O)C(=O)N[C@@H](CC(=O)O)C(=O)N[C@@H](CCCNC(=N)N)C(=O)NC(C)(C)C(=O)N[C@@H](C)C(=O)N[C@@H](CCC(N)=O)C(=O)NC(C)(C)C(=O)N[C@@H](CC(N)=O)C(=O)N[C@@H](Cc1ccccc1)C(=O)N[C@H](C(=O)N[C@@H](CC(N)=O)C(=O)N[C@@H](Cc1c[nH]c2ccccc12)C(=O)N[C@@H](CC(C)C)C(=O)N[C@@H](CC(C)C)C(=O)N[C@@H](C)C(=O)N[C@@H](CCC(N)=O)C(=O)N[C@@H](CCCCN)C(N)=O)C(C)C
percent of unbound drug in plasma (human plasma proteins [1]): 7.3% | proportion of the drug being bound (human plasma proteins [1]): 92.7% | Human PPB (Fu,plasma), fraction unbound (fraction unbound) (human plasma proteins [2]): 0.0734

[NMeY][Aib]EGTFISDYSI[Aib]LDRK([AEEA-AEEA-γGlu-γGlu-C15 diacid])AQ[Aib]NFVNWLLAQRPSSGAPPPS-NH2 (not fully specified (N-terminus)) [Compound 20]
percent of unbound drug in plasma (human plasma proteins [1]): 0.1% | Dog PPB (Fu,plasma), fraction unbound (fraction unbound) (dog plasma proteins): 0.0021 | Human PPB (Fu,plasma), fraction unbound (fraction unbound) (human plasma proteins [2]): 0.0013
